Source: patent publication US20240299561A1, “HISTIDINE-SELECTIVE POLYMER REAGENTS” (Nektar Therapeutics, priority 2021, published 2024)
Several values for one entry are separate records, joined by “and”; a condition that tells them apart may be missing. Identical values can stand only once.

Columns and labels:
[1] = Hydrolytic stability of PEG conjugates with α-CBZ-histidine in PBS buffer, pH 7.4, 37° C. (HPLC)
Protocol: The reaction mixture was incubated at 37° C. and periodically analyzed by HPLC.

[2] = Reaction of histidine-linked conjugates with hydroxylamine (release of α-CBZ-His); settings: pH 7.3, 25° C., at approximately 42 hours
Source text: FIGS. 14A and 14B provide further evidence of the histidine-selectivity of exemplary polymer reagents provided herein, as illustrated by reaction of their corresponding histidine-linked conjugates with hydroxylamine. The data described below is representative of an indirect method for evaluating covalent attachment of a polymer reagent as provided herein with a histidine residue of an amino acid, peptide, polypeptide or other active histidine containing molecule, by displacement of the histidine-attached molecule resulting from reaction of the histidine-linked polymer conjugate with hydroxylamine.
More particularly, FIG. 14A is a plot illustrating reaction of a histidine conjugate prepared by reaction of Reagent 1 with model compound, α-CBZ-His, with hydroxylamine at pH 7.4, 25° C. […] Histidine conjugates such as the illustrative conjugates tested, when treated with hydroxylamine, undergo a reverse reaction such that the unconjugated histidine compound is released. […] By approximately 22 hours, 100% of the conjugate has disappeared with release of α-CBZ-His.

Compound | degree of hydrolytic stability relative to the other conjugates tested [1] | % Hydrolysis at day 10 [1] | percent of intact conjugate remaining [2] [%]
COCCOCCOCCOCCOCCOCCOCCOCCOCCOCCOCCOCCOCCOCCOCCOCCOCCOCCOCCOCCOCCOCCOCCOCCOCCOCCOCCOCCOCCOCCOCCOCCOCCOCCOCCOCCOCCOCCOCCOCCOCCOCCOCCOCCOCCOCCOCCOCCOCCOCCOCCOCCOCCOCCOCCOCCOCCOCCOCCOCCOCCOCCOCCOCCOCCOCCOCCOCCOCCOCCOCCOCCOCCOCCOCCOCCOCCOCCOCCOCCOCCOCCOCCOCCOCCOCCOCCOCCOCCOCCOCCOCCOCCOCCOCCOCCOCCOCCOCCOCCOCCOCCOCCOCCOCCOCCOCCOCCOCCOCCOCCOCCOCCOCCN(C)C(=O)n1cnc(C[C@@H](NC(=O)OCc2ccccc2)C(=O)O)c1 [Conjugate 10, mPEG-N(CH3)—CO-α-CBZ-Histidine, 5 kDa] | highest degree of hydrolytic stability | 1.8% and 1.9% | –
mPEG-N(CH2CF3)—CO-α-CBZ-Histidine, 5 kDa [Conjugate 14] | moderate degree of hydrolytic stability | – | –
mPEG-Piperazine-CO— α-CBZ-Histidine, 5 kDa [Conjugate 11] | moderate degree of hydrolytic stability | 15.6% | 4
